Source: article PMC7055233

Tests used:
[1] = molecular target: MapZ cytoplasmic domain (MapZ_(cyto)), wild type, residues 1-159 (S. pneumoniae (strain ATCC BAA-255/R6)) (UniProt Q8DR55); experiment: NMR titration; 1H-15N BEST-TROSY of 15N MapZ_(cyto) (30 to 50 µM, one sample for each ratio) with unlabelled monomeric FtsZb (no GTP, no MgCl2), 5 °C; peak intensity decrease; apparent constants, 1:1 complex assumed
[2] = molecular target: MapZ cytoplasmic domain (MapZ_(cyto)), wild type, residues 1-159 (S. pneumoniae (strain ATCC BAA-255/R6)) (UniProt Q8DR55); experiment: NMR titration; 1H-15N BEST-TROSY of 30 µM 15N MapZ_(cyto) with polymeric FtsZb at 1:1, 1:3, 1:4 and 1:6; 30 mM HEPES, 200 mM KCl, pH 7.5, 10 mM GTP and MgCl2, 5 °C; peak intensity decrease; apparent constants, 1:1 complex assumed

Sequence of UniProt Q8DR55 (Q8DR55 other isoform, or with tags, fused parts or gaps): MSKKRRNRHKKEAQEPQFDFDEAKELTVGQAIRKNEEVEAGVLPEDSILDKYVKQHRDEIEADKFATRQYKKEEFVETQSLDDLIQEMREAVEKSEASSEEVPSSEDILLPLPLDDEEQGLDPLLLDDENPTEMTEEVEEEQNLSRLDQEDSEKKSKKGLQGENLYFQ

Q: With “FtsZb, wild-type FtsZ from S. pneumoniae with an N-terminal glycine left after removal of GST by TEV protease (natural protein)” as the substance, how does the Kd [1] read?
A: 10 to 100 µM

Q: What about the Kd [2] of the same substance?
A: 10 to 100 µM
